Literature values as cited in PMC7062049.

Target: HP1β CSD (Mus musculus) (UniProt P83917)

Kd: 150 nM
Substance: HP1β CSD (from UniProt P83917)
